We go through 2 molecules from patent publication US20200024358A1 (published 2020).

Test [1] has as its target T1, extracellular domain of human PD-L1 (Example 8) (human, UniProt Q9NZQ7 19-238).
T1 construct: extracellular domain; also called PD-L1 antigen; immobilized PD-L1
The test is described as follows: competition ELISA in solution (Friguet), Scatchard plot. (ELISA stands for enzyme-linked immunosorbent assay.)
Procedure: First, mixtures of the trispecific antibody (Ab) at a fixed concentration and the PD-L1 antigen (Ag) at varying concentrations were incubated for sufficient time to reach equilibrium. Then the concentration of trispecific antibody, which remained unsaturated at equilibrium (not associated with PD-L1 antigen), was measured by a classical indirect ELISA using PD-L1 coated plates. […] The Kd was calculated from a Scatchard plot using the following equation:

Test [2] has as its target T2, recombinant human CD3 epsilon His-tag protein (Novoprotein, Cat. No. C578) (human, UniProt P07766 23-126).
T2 construct: Bought protein; not shown: His-tag
The test is described as follows: dual-binding ELISA: BCMA Fc coated, then CD3 epsilon His, anti-His detection.

In test [3] the target is T1, extracellular domain of human PD-L1 …. Briefly: Kinetic Exclusion Assay (KinExA 3200), 1:1 model. On the technique in general: Kinetic exclusion samples the free partner from a solution-phase mixture.
Procedure: (§1) Studies were designed to measure the free antibody in samples with a fixed antibody concentration and different concentrations of antigen PD-L1 at equilibrium, reaction mixtures were performed in PBS (pH 7.4) with 1 mg/ml BSA. […] The equilibrium titration and kinetics data were fit to a 1:1 reversible binding model using KinExA Pro software (version 4.2.10; Sapidyne Instruments) to determine the Kd.
The target in test [4] is T3, Human BCMA labelled with a fluorescent dye (human, UniProt Q02223 1-54, limits assumed, labelled with a fluorescent dye (dye and site not stated)).
T3 construct: also called fluorescently labeled BCMA
T3 sequence (looked up): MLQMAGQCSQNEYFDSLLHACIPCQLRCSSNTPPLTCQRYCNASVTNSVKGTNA
The test is described as follows: MicroScale Thermophoresis, labelled BCMA at 2 nM. On the technique in general: MST reads how a fluorescent partner responds to local heating, with and without ligand.

In test [5] the target is T1, extracellular domain of human PD-L1 …. Briefly: Kinetic Exclusion Assay (KinExA 3200).
Procedure: as §1

Substitutions are numbered along the chain they refer to.

T1 sequence (Q9NZQ7 19-238): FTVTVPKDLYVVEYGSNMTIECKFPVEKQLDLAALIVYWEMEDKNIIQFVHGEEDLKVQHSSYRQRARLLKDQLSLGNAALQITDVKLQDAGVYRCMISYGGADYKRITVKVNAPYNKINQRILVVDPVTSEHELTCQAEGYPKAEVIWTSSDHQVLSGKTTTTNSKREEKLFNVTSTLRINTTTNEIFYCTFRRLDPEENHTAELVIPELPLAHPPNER
T2 sequence (P07766 23-126): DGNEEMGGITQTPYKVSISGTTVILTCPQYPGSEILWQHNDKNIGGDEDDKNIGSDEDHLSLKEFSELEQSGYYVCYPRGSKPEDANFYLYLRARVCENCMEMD

B1: CDR1-007 (other)
heavy: QIQLVQSGPELKKPGETVKISCKASGYTFTDYSINWVKRAPGKGLKWMGWINTETREPAYAYDFRGRFAFSLETSASTAYLQINNLKYEDTATYFCALDYSYAMDYWGQGTSVTVSSASTKGPSVFPLAPSSKSTSGGTAALGCLVKDYFPEPVTVSWNSGALTSGVHTFPAVLQSSGLYSLSSVVTVPSSSLGTQTYICNVNHKPSNTKVDKRVEPKSCGGGGSEIVMTQSPSTLSASVGDRVIITCQASEDIYSLLAWYQQKPGKAPKLLIYDASDLASGVPSRFSGSGSGAEFTLTISSLQPDDSATYYCQGNYGSSSSSSYGAVFGQGTKLTVLGGGGGSGGGGSGGGGSGGGGSEVQLVESGGGSVQPGGSLRLSCTVSGIDLSSYTMGWVRQAPGKGLEWVGIISSGGRTYYASWAKGRFTISRDTSKNTVYLQMNSLRAEDTATYYCARGRYTGYPYYFALWGQGTTVTVSS
light: DIVLTQSPASLAMSLGKRATISCRASESVSVIGAHLIHWYQQKPGQPPKLLIYLASNLETGVPARFSGSGSGTDFTLTIDPVEEDDVAIYSCLQSRIFPRTFGGGTKLEIKRTVAAPSVFIFPPSDEQLKSGTASVVCLLNNFYPREAKVQWKVDNALQSGNSQESVTEQDSKDSTYSLSSTLTLSKADYEKHKVYACEVTHQGLSSPVTKSFNRGECGGGGSAVVTQEPSLTVSPGGTVTLTCGSSTGAVTTSNYANWVQQKPGKSPRGLIGGTNKRAPGVPARFSGSLLGGKAALTISGAQPEDEADYYCALWYSNHWVFGGGTKLTVLGGGGGSGGGGSGGGGSGGGGSEVQLVESGGGSVQPGGSLRLSCAASGFTFSTYAMNWVRQAPGKGLEWVGRIRSKANNYATYYADSVKGRFTISRDDSKNTLYLQMNSLRAEDTATYYCVRHGNFGDSYVSWFAYWGQGTTVTVSS
notes: also called CDR-007; trispecific CDR1-007
On to B1, for which the Kd (commonly the constant that tells how readily two partners part at equilibrium) in test [1] was 0.11 nM; in test [3], 0.0217 to 0.042 nM; in test [4], 8.5 to 9.9 nM. In test [2], the binding result is listed as “binds”.

B2: CDR1-017 (other)
heavy: B1 heavy with R458A
light: B1 light
notes: also called trispecific CDR1-017
In test [1], B2 displayed an equilibrium dissociation constant (Kd) of 26 nM. In addition, the “fold difference in affinity against CDR1-007 (WT)” value in test [5] is ~1000 fold.
